Experimental data from paper PMC5299410.
Where “and” joins values, the source holds several entries; their conditions need not be identical. Equal values may be shown once.

Assays:
[1] = biological target: Cys35 (UniProt position 36, EWCGPCKMIAP); experiment: chemical modification; conditions: 120 mM NaCl plus buffer components, 30 mM ACES, 15.6 mM ethanolamine, 15.6 mM TRIS, 0.1 mM DTPA, reduced (dithiol) thioredoxin, DTT removed by gel filtration, folded
[2] = biological target: T1, Cys32 (UniProt position 33, FWAEWCGPCKM); experiment: chemical modification; conditions: 120 mM NaCl plus buffer components, 30 mM ACES, 15.6 mM ethanolamine, 15.6 mM TRIS, 0.1 mM DTPA, reduced (dithiol) thioredoxin, DTT removed by gel filtration, folded
[3] = biological target: T1, Cys32; experiment: fluorescence; conditions: not stated (no added NaCl mentioned); 15 mM acetic acid, 15 mM MES, 30 mM Tris, 100 μM dtpa, 2 mM DTT; reduced (dithiol) thioredoxin in the presence of 2 mM DTT; folded

| Substance | pKa [1] | pKa [2] | pKa [3] |
| --- | --- | --- | --- |
| Thioredoxin 1 (EcTRX) E101G (Escherichia coli; E101G) | 9.0 ± 0.2 | 6.80 ± 0.20 | 7.1 ± 0.1 and 7.10 ± 0.04 |
| Thioredoxin 1 (EcTRX) L94A (Escherichia coli; L94A) | 8.8 ± 0.1 | 6.9 ± 0.1 | – |
| Thioredoxin 1 (EcTRX) L107A (Escherichia coli; L107A) | – | 7.3 ± 0.1 | – |
| Thioredoxin 1 (EcTRX) N106A (Escherichia coli; N106A) | 8.9 ± 0.1 | 6.5 ± 0.1 | – |
| Thioredoxin 1 (EcTRX), wild type (Escherichia coli) | 9.3 ± 0.3 | 7.3 ± 0.3 | 7.5 ± 0.2 and 7.23 ± 0.06 |
